2 molecules from patent US20120108797A1 (AstraZeneca / MedImmune, published 2012) can be followed below.

Assay [1] addresses T1, cynomolgus monkey uPAR, cell-bound (cynomolgus monkey, UniProt Q9GK78 23-305).
T1 construct: whole, on cells; also called cyno-uPAR; uPAR on CHOK1 or 293T transfectants
The assay is described as follows: FACS on 293T cells expressing cynomolgus uPAR, GeoMean of the peak shift.

In assay [2] the target is T2, human urokinase-type plasminogen activator receptor (uPAR), cell-bound (human, UniProt Q03405 23-305).
T2 construct: whole, on cells; Full length cDNA expressed on B300.19 and L929 transfectants; endogenous on U937 (and PC-3 used as positive control cells); also called hu-uPAR
T2 sequence (Q03405 23-305): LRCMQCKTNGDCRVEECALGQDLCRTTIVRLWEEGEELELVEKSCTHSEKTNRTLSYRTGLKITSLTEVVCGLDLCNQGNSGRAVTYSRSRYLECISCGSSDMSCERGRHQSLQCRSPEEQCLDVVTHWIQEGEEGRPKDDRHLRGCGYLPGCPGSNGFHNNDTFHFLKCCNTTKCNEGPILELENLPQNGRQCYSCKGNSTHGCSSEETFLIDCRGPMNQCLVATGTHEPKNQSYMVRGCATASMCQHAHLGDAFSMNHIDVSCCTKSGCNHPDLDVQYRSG
The assay is described as follows: FACS, B300.19/hu-uPAR cells.
Procedure: Binding of the antibodies to cell-bound uPAR was tested with the murine pre-B cell line B300.19 (ATCC) transfected to express human uPAR, and B300.19 parental cells as a control, using Fluorometric Microvolume Assay Technology (FMAT). 5,000 cells/well were employed for the assay. […] The bound antibodies were detected using goat anti-human IgG Cy5 conjugate at 400 ng/ml (goat anti-mouse IgG Cy5 conjugate for mouse antibody control). […] For each dye stained, the ratio of the GeoMean values between positive and negative cells were tabulated.

T1 sequence (Q9GK78 23-305): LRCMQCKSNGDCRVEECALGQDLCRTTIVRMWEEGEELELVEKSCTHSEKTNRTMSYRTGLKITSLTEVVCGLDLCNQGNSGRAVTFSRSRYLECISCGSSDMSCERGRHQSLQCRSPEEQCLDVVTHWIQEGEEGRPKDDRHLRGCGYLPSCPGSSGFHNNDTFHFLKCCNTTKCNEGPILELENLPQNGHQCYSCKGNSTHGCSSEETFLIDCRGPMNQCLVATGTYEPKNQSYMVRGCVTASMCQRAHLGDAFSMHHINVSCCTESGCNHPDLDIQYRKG

B1: 3.8.3 (antibody, V domains shown)
VH: EVQLVESGGGLVQPGGSLRLSCAASGFTFSSYWMSWVRQAPGKGLEWVANIKQHGSEKYYVDSVKGRFTISRDNAKNSLYLQMNSLRAEDTAVYYCAREEAYYYDNSGYYWYFDLWARGTLVTVSS
VL: DIQMTQSPSSVSASIGDRVTITCRASQGISSWLAWYQQKPGKTPKLLIYAASSLQSGVPSRFSGSGSGTDFTLTISSLQPEDFATYYCQQADSFPWTFGQGTKVEIK
notes: Variable domains only; gamma 2 by chain name, kappa; also called 3.8.3g2; 3.8.3k
Turning to B1, the binding result in assay [1] is recorded as “binds”.

B2: 4.13.2 (antibody, V domains shown)
VH: EVQLLESGGGLVQPGGSLRLSCAASGFTFSSYAMSWVRQAPGKGLEWVLGISGSGGSTYYADSVKGRFTISRDNSKNTLYLQMNSLRAEDTAVYYCAKDGYGDYVGWYFDLWGRGTLVTVSS
VL: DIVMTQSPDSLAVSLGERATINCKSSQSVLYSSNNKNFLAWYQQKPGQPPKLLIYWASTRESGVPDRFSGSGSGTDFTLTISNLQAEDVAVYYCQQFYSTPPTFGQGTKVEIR
notes: Variable domains only; gamma 4 by chain name, kappa; also called 4.13.1; 4.13.1g4
For B2, the “gCy5 Geo Mean Pos Cells” value in assay [2] was 282.
